Results: publication PMC5415106

Key:
[1] = target: GST-Dpb11-wild-type (budding yeast) (UniProt P47027); assay: pull-down; as the GST pull-down without DNA, but in the presence of 10 pmol bubble-shaped DNA; 10 pmol GST-Dpb11, 32P-labelled RPA; 25°C 1 h, glutathione Sepharose
[2] = target: GST-Dpb11-m1,2,3,5,ΔC (budding yeast) (UniProt P47027); assay: as above
[3] = target: GST-Dpb11-wild-type (budding yeast) (UniProt P47027); assay: pull-down; 10 pmol GST-tagged Dpb11 with 32P-labelled protein, no DNA; GST-binding buffer (40 mM Tris-HCl pH 7.5, 100 mM NaCl, 0.1 mM EDTA, 10% glycerol, 0.1% Triton X-100, 1 mM DTT, 0.1 mg/ml BSA), 25°C 1 h; glutathione Sepharose, two washes; SDS-PAGE and phosphorimaging
[4] = target: GST-Dpb11-m1,2,3,5,ΔC (budding yeast) (UniProt P47027); assay: as above
[5] = target: GST-Dpb11-wild-type (budding yeast) (UniProt P47027); assay: pull-down; GST-Dpb11 pull-down of CDK-phosphorylated RPA with single-stranded DNA substituted for bubble-shaped DNA; data not shown
[6] = target: Mcm2-7 complex with a PKA tag at the N-terminus of Mcm2 [modified: 32P-phosphate on the PKA tag; 32P-phosphate on the PKA tag] [budding yeast]; assay: GST pull-down, phosphorimaging; details: 10 pmoles GST-Dpb11, read off a plot

GST-Dpb11-wild-type (budding yeast), sequence (P47027 whole entry): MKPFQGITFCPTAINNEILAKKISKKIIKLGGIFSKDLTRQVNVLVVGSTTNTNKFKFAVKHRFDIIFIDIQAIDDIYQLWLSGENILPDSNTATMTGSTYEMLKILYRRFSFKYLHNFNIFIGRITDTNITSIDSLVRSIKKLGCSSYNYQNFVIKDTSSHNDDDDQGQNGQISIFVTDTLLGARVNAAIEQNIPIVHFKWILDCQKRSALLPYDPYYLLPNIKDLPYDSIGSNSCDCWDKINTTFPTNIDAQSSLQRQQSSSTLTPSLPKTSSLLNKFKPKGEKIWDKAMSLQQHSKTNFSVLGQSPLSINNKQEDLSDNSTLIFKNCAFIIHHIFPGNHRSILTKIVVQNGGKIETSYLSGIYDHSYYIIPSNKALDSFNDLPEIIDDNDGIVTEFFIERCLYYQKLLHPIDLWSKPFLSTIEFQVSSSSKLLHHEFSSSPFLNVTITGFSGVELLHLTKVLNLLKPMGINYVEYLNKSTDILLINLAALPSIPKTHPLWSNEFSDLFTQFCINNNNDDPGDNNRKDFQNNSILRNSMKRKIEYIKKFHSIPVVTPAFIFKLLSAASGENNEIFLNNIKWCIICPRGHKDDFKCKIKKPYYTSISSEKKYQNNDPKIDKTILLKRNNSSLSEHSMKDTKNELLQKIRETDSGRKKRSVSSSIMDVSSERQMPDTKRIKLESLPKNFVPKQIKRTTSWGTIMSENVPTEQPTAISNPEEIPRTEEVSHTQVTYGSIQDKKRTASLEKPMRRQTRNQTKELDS
GST-Dpb11-m1,2,3,5,ΔC (budding yeast), sequence (P47027 1-615 K463E/K469E/R538E/K549E): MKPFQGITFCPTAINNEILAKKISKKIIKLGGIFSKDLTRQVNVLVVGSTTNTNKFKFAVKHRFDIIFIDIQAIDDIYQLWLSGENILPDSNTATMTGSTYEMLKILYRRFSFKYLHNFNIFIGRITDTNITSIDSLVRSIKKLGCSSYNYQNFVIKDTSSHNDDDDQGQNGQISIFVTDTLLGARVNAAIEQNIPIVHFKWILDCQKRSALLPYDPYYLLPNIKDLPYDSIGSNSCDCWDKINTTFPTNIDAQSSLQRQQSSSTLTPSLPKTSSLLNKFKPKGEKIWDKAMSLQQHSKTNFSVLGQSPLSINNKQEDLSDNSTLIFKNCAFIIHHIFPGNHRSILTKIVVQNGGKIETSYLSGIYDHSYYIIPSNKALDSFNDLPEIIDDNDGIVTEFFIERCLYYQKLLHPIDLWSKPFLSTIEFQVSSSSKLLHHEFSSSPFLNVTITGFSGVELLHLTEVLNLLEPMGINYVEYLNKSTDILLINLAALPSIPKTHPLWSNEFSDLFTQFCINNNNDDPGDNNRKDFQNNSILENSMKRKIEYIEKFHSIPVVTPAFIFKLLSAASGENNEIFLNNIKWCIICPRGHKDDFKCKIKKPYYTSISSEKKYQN

Row | Substance | percent pulled down [1] [%] | percent pulled down [2] [%] | percent pulled down [3] [%] | percent pulled down [4] [%] | percent pulled down [5] [%] | response ([6]; 1 pmole Mcm2-7 input, parent: 0.26) [pmol] | response ([6]; 3 pmoles Mcm2-7 input, parent: 0.55) [pmol] | response ([6]; 10 pmoles Mcm2-7 input, parent: 1.3) [pmol]
1 | CDK-phosphorylated RPA (PKA-tagged on Rfa1) (from UniProt P22336 1-621) (complex) | 50 | 15 | 15 | 15 | 50 | – | – | –
2 | GST-Dpb11-wild-type mutant K463E; K469E; R538E; K549E [budding yeast] / Mcm2-7 complex with a PKA tag at the N-terminus of Mcm2 [modified: 32P-phosphate on the PKA tag; 32P-phosphate on the PKA tag] [budding yeast] chain 1 K463E, chain 1 K469E, chain 1 R538E, chain 1 K549E | – | – | – | – | – | 0.25 | 0.55 | 1.3
3 | PKA-RPA (not phosphorylated by CDK) (from UniProt P22336 1-621) (complex) | 15 | – | 15 | – | – | – | – | –
